First the molecules themselves.
B1: TPRG1 (parent)
chain: ETIQGFWLLTKIDHWNNEKERILL
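Also: lentivirally expressed fusions sorted by FACS into six bins by GFP to DsRed ratio, PSI derived from sequencing read proportions per bin multiplied by bin number.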

The series covers variants of B1. In words: protein stability index of a GFP-peptide fusion (GPS, HEK-293T) (PSI 1-6); higher = more stable. The following applies: c terminus: a fixed tail appended.
Turning to ETIQGFWLGTKIDHWNNEKERILL [L9G], the protein stability index was 2.15.

For the variant ETIQGFWLDTKIDHWNNEKERILL [L9D], the protein stability index is 1.58.

For ETIQGFWNLTKIDHWNNEKERILL [L8N], the protein stability index amounted to 1.99.

Consider ETIQGFWQLTKIDHWNNEKERILL [L8Q], for which the protein stability index amounted to 1.53.

For ETIQGFWRLTKIDHWNNEKERILL [L8R], the protein stability index came to 2.26.

Take ETIQGFWHLTKIDHWNNEKERILL [L8H]: the protein stability index is 2.04.

Turning to ETIQGFWGLTKIDHWNNEKERILL [L8G], the protein stability index stood at 1.61.

Take ETIQGFWELTKIDHWNNEKERILL [L8E]: the protein stability index stood at 2.42.

As for ETIQGFWPLTKIDHWNNEKERILL [L8P], the protein stability index was determined as 1.43.

As to ETIQGFWDLTKIDHWNNEKERILL [L8D], the protein stability index came out at 2.34.

In the case of ETIQGFWWLTKIDHWNNEKERILL [L8W], the protein stability index came out at 1.43.

Turning to ETIQGFWTLTKIDHWNNEKERILL [L8T], the protein stability index is 2.54.

Take ETIQGFWALTKIDHWNNEKERILL [L8A]: the protein stability index was found to be 2.08.

For the variant ETIQGFWYLTKIDHWNNEKERILL [L8Y], the protein stability index worked out at 4.07.

In the case of ETIQGFWKLTKIDHWNNEKERILL [L8K], the protein stability index was found to be 3.05.

Consider ETIQGFWSLTKIDHWNNEKERILL [L8S], for which the protein stability index was determined as 1.56.

As for ETIQGFWVLTKIDHWNNEKERILL [L8V], the protein stability index was found to be 2.27.

With ETIQGFWLLTKIDHWNNEKARILL [E20A], the protein stability index is 3.4.

As to ETIQGFWLLTKIDHWNNEKDRILL [E20D], the protein stability index came out at 3.18.

On to ETIQGFWLLTKIDHWNNEKMRILL [E20M], for which the protein stability index amounted to 3.33.

For ETIQGFWLLTKIDHWNNEKPRILL [E20P], the protein stability index amounted to 2.37.

Regarding ETIQGFWLLTKIDHWNNEKKRILL [E20K], the protein stability index came to 2.67.

ETIQGFWLLTKIDHWNNEKNRILL [E20N]: the protein stability index stood at 2.53.

For the variant ETIQGFWLLTKIDHWNNEKLRILL [E20L], the protein stability index stood at 3.61.

Regarding ETIQGFWLLTKIDHWNNEKQRILL [E20Q], the protein stability index is 2.27.

ETIQGFWLLTKIDHNNNEKERILL [W15N]: the protein stability index amounted to 1.57.

Turning to ETIQGFWLLTKIDHQNNEKERILL [W15Q], the protein stability index was 2.09.

With ETIQGFWLLTKIDHDNNEKERILL [W15D], the protein stability index was determined as 1.62.

As for ETIQGFWLLTKIDHENNEKERILL [W15E], the protein stability index was 2.05.

In the case of ETIQGFWLLTKIDHKNNEKERILL [W15K], the protein stability index came to 2.04.

For ETIQGFWLLTKIDHHNNEKERILL [W15H], the protein stability index is 2.16.

On to ETIQGFWLLTKIDHRNNEKERILL [W15R], for which the protein stability index amounted to 3.5.

With ETIQGFWLLTKIDHCNNEKERILL [W15C], the protein stability index turned out to be 1.56.

On to ETIQGFWLLTKIDHPNNEKERILL [W15P], for which the protein stability index was 2.2.

Take ETIQGFWLLTKIDHINNEKERILL [W15I]: the protein stability index came to 1.74.

On to ETIQGFWLLTKIDHGNNEKERILL [W15G], for which the protein stability index came out at 4.15.

On to ETIQGFWLLTKIDHVNNEKERILL [W15V], for which the protein stability index was 2.49.

Turning to ETIQGFWLLTKIDHWNNEKERNLL [I22N], the protein stability index worked out at 2.6.

Take ETIQGFWLLTKIDHWNNEKERALL [I22A]: the protein stability index is 2.62.

ETIQGFWLLTKIDHWNNEKERVLL [I22V]: the protein stability index worked out at 3.42.

In the case of ETIQGFWLLTKIDHWNNEKERKLL [I22K], the protein stability index stood at 2.15.

ETIQGFWLLTKIDHWNNEKERELL [I22E]: the protein stability index came to 2.16.

Regarding ETIQGFWLLTKIDHWNNEKERPLL [I22P], the protein stability index is 1.61.

ETIQGFWLLTKIDHWNNEKERFLL [I22F]: the protein stability index was determined as 3.5.

On to ETIQGFWLLTKIDHWNNEKERGLL [I22G], for which the protein stability index was found to be 1.89.

Consider ETIQGFWLLTKIDHWNNEKERRLL [I22R], for which the protein stability index worked out at 1.48.

Consider ETIQGFWLLTKIDHWNNEKERDLL [I22D], for which the protein stability index turned out to be 1.01.

As to ETIQGFWLLTKIDHWNNEKERLLL [I22L], the protein stability index came to 3.26.

For the variant ETIQGFWLLTKIDHWNNEKERHLL [I22H], the protein stability index was determined as 2.02.

Turning to ETIQGFWLLTKIDHWNNEKERQLL [I22Q], the protein stability index worked out at 3.38.

For the variant ETIQGFWLLTKIDHWNNEKERMLL [I22M], the protein stability index is 3.17.

For ETIQGFWLLTKIDHWNNEKERYLL [I22Y], the protein stability index was found to be 1.63.

Consider ETIQGFWLLTKIDHWNNLKERILL [E18L], for which the protein stability index is 3.57.

Regarding ETIQGFWLLTKIDHWNNSKERILL [E18S], the protein stability index turned out to be 3.54.

As for ETIQGFWLLTKIDHWNNAKERILL [E18A], the protein stability index turned out to be 2.8.

Take ETIQGFWLLTKIDHWNNMKERILL [E18M]: the protein stability index worked out at 2.79.

As to ETIQGFWLLTKIDHWNNWKERILL [E18W], the protein stability index came out at 2.03.

On to ETIQGFWLLTKIDHWNNCKERILL [E18C], for which the protein stability index was found to be 2.45.

ETIQGFWLLTKIDHWNNIKERILL [E18I]: the protein stability index was 1.56.

Turning to ETIQGFWLLTKIDHWNNHKERILL [E18H], the protein stability index is 2.3.

ETIQGFWLLTKIDHWNNKKERILL [E18K]: the protein stability index amounted to 1.71.

With ETIQGFWLLTKIDHWNNVKERILL [E18V], the protein stability index was 3.83.

With ETIQGFWLLTKIDHWNNNKERILL [E18N], the protein stability index stood at 2.14.

As to ETIQGFWLLTKIDHWNNEEERILL [K19E], the protein stability index is 1.69.

As for ETIQGFWLLTKIDHWNNERERILL [K19R], the protein stability index was 4.12.

ETIQGFWLLTKIDHWNNEVERILL [K19V]: the protein stability index is 1.62.

For the variant ETIQGFWLLTKIDHWNNEPERILL [K19P], the protein stability index stood at 2.82.

Turning to ETIQGFWLLTKIDHWNNECERILL [K19C], the protein stability index came to 2.12.

For ETIQGFWLLTKIDHWNNEGERILL [K19G], the protein stability index was found to be 1.76.

Consider ETIQGFWLLTKIDHWNNEYERILL [K19Y], for which the protein stability index turned out to be 2.27.

With ETIQGFWLLTKIDHWNNETERILL [K19T], the protein stability index worked out at 1.78.

As to ETIQGFWLLTKIDHWNNENERILL [K19N], the protein stability index was determined as 4.67.

For ETIQGFWLLTKIDHWNNEIERILL [K19I], the protein stability index was 2.47.

In the case of ETIQGFWLLTKIDHWNNEWERILL [K19W], the protein stability index came to 2.92.

ETIQGFWLLTKIDHWNNEAERILL [K19A]: the protein stability index came out at 2.21.

As for ETIQGFWLLTKIDHWNNEQERILL [K19Q], the protein stability index stood at 1.52.

With ETIQGFWLLTKIDHWNNELERILL [K19L], the protein stability index came out at 2.92.

Take ETIQGFWLLTKIDSWNNEKERILL [H14S]: the protein stability index amounted to 2.41.

Consider ETIQGFWLLTKIDRWNNEKERILL [H14R], for which the protein stability index is 4.13.

As for ETIQGFWLLTKIDVWNNEKERILL [H14V], the protein stability index was 3.16.

On to ETIQGFWLLTKIDGWNNEKERILL [H14G], for which the protein stability index came out at 1.34.

With ETIQGFWLLTKIDIWNNEKERILL [H14I], the protein stability index was found to be 2.49.

ETIQGFWLLTKIDLWNNEKERILL [H14L]: the protein stability index worked out at 2.25.

Turning to ETIQGFWLLTKIDCWNNEKERILL [H14C], the protein stability index worked out at 1.39.

Turning to ETIQGFWLLTKIDDWNNEKERILL [H14D], the protein stability index was determined as 2.88.

For ETIQGFWLLTKIDMWNNEKERILL [H14M], the protein stability index stood at 2.37.

ETIQGFWLLTKIDFWNNEKERILL [H14F]: the protein stability index was determined as 2.41.

In the case of ETIQGFWLLTKIDWWNNEKERILL [H14W], the protein stability index came to 2.98.

For the variant ETIQGFWLLTKIDEWNNEKERILL [H14E], the protein stability index worked out at 2.51.

For the variant ETIQGFWLLTKIDHWNNEKERIAL [L23A], the protein stability index is 2.89.

In the case of ETIQGFWLLTKIDHWNNEKERIEL [L23E], the protein stability index is 2.38.

Regarding ETIQGFWLLTKIDHWNNEKERIKL [L23K], the protein stability index came to 1.23.

For ETIQGFWLLTKIDHWNNEKERIML [L23M], the protein stability index was found to be 3.45.

As to ETIQGFWLLTKIDHWNNEKERIIL [L23I], the protein stability index stood at 3.88.

For the origin of these results see the supplement of paper PMC10567573.
